{
  "source": "patent US7205387B2",
  "about": "“Recombinant polypeptide useful for neurotrophin receptor mediated gene delivery and as neurotrophin agonist” (Agency for Science, Technology and Research, priority 2003, dated 2007)",
  "molecules": {"B1": {"name": "DsbC-NL4-10K: chimeric recombinant protein: NL4-10K attached to the C-terminus of DsbC, an E. coli disulfide bond isomerase (protein)", "chain": "MKKGFMLFTLLAAFSGFAQADDAAIQQTLAKMGIKSSDIQPAPVAGMKTVLTNSGVLYITDDGKHIIQGPMYDVSGTAPVNVTNKMLLKQLNALEKEMIVYKAPQEKHVITVFTDITCGYCHKLHEQMADYNALGITVRYLAFPRQGLDSDAEKEMKAIWCAKDKNKAFDDVMAGKSVAPASCDVDIADHYALGVQLGVSGTPAVVLSNGTLVPGYQPPKEMKEFLDEHQKMTSGKGSTSGSGHHHHHHSAGLVPRGSCTTTHTFVKALTMDGKQAAWRFIRIDTACKKKKKKKKKK", "modifications": "DsbC-NL4-10K", "notes": "chimeric recombinant protein: NL4-10K attached to the C-terminus of DsbC, an E. coli disulfide bond isomerase"}},
  "key": {"[1]": {"test_system": "PC12 (TrkA and p75^NTR positive) cells", "experiment": "Gene delivery in vitro (pCAGluc luciferase reporter), PC12 cells", "assay_type": "cell-based, rat", "protocol": "(§1) A PC12 (rat pheochromocytoma) cell line was obtained from ATCC (American Type Culture Collection, Manassas, Va., USA) and cultured in RPMI-1640 medium supplemented with 10% fetal bovine serum (FBS) and 5% horse serum. PC12 cells are known to express TrkA and p75^NTR receptors. A COS7 (African green monkey kidney fibroblast) cell line was obtained from ATCC and cultured in Dulbecco's modified Eagle's medium (DMEM) supplemented with 10% fetal bovine serum, 50 U/ml penicillin, and 50 μg/ml streptomycin. The cells were maintained in a 37° C., 5% CO2, humidified incubator.\n(§2) To determine the transfection efficiencies of our nucleic acid delivery systems, we employ a reporter plasmid, pCAGluc (a gift from Yoshiharu Matsuura, National Institute of Infectious Diseases, Tokyo, Japan), encoding firefly luciferase under the control of the composite promoter, CAG. CAG comprises the chicken β-actin promoter and the cytomegalovirus immediate early enhancer.\nTrkA-targeting gene delivery complexes were tested for transfection efficiency in vitro in PC12 (TrkA and p75^NTR positive) cells and COS7 (neurotrophin receptor negative) cells. The cells were grown to 50–70% confluency in microplate wells (24-, 48-, or 96-well plates). The gene delivery complexes were prepared according to specifications presented for each example. Transfection was accomplished by replacing the serum-enriched medium with half the usual volume of reduced-serum medium, Opti-MEM (Invitrogen), containing the gene delivery complexes. Where specifically mentioned, 100 μM of chloroquine was also added to help the complexes escape from endosomes. After four hours of incubation, the cells were restored to the normal medium volume and serum concentration, either by topping up with medium containing twice the usual serum concentration (RPMI-1640 with 20% FBS and 10% horse serum for PC12) or by completely replacing the medium.\nOne to two days after transfection, the cell culture medium was removed and the cells were rinsed in phosphate-buffered saline (PBS). Enough Reporter Lysis Buffer (Promega, Wisconsin, Md., USA) to cover the bottom surface was added to each well (50 μl/well for 48-well plates). After one freeze-thaw cycle, the lysates were tested for luciferase activity using the Luciferase Assay System (Promega) and a single-tube luminometer (Berthold Lumat L B 9507, Bad Wildbad, Germany). The total protein concentration of each lysate was determined using the DC Protein assay (Bio-Rad, Hercules, Calif., USA). The results were expressed in relative light units (RLU) per milligram of total protein."}, "plasmid DNA": {"test_system": "plasmid DNA", "experiment": "DNA retardation assay (agarose gel electrophoresis)", "assay_type": "binding", "protocol": "This assay qualitatively assesses the ability of a polypeptide or polycation to bind to DNA and thus to retard its migration (by decreasing its charge/mass ratio) through an agarose gel under electrophoresis. For a range of N/P ratios, polypeptide was added to 0.1 μg of plasmid DNA made up to 20 μl with either HEPES-buffered saline (HBS, 150 mM NaCl, 29 mM HEPES, pH 7.3) or 5% glucose. The mixtures were vortexed and incubated at room temperature for 30 minutes before being subjected to electrophoresis in a 0.8–1.0% Tris-borate-EDTA agarose gel stained with ethidium bromide for visualization under ultraviolet light."}, "[2]": {"test_system": "COS7 (neurotrophin receptor negative) cells", "experiment": "Gene delivery in vitro (pCAGluc luciferase reporter), COS7 cells", "assay_type": "cell-based, African green monkey", "details": "triple complexes with protamine, 0.1 μg pCAGluc/well", "protocol": "as §1, §2\nTrkA-targeting gene delivery complexes were tested for transfection efficiency in vitro in PC12 (TrkA and p75^NTR positive) cells and COS7 (neurotrophin receptor negative) cells. […]\nOne to two days after transfection, the cell culture medium was removed and the cells were rinsed in phosphate-buffered saline (PBS). […] The total protein concentration of each lysate was determined using the DC Protein assay (Bio-Rad, Hercules, Calif., USA). […]"}, "[3]": {"details": "triple complexes with protamine (2 μg per μg DNA), 0.1 μg pCAGluc/well"}},
  "data": [
    {"molecule": "B1", "values": [
      {"measurement": "effect of pre-treatment with free protein on DsbC-NL4-10K/DNA/PEI600 transfection", "setting": "[1]; 30 minutes before transfection, compared to bovine serum albumin pre-treatment", "result": "greatly reduced the transfection efficiency"},
      {"measurement": "N/P ratio of maximum transfection efficiency", "setting": "[1]; [3]", "result": 1, "unit": "N/P ratio"},
      {"measurement": "protein/DNA ratio of maximum transfection efficiency", "setting": "[1]; [3]", "result": 0.3, "unit": "nmol/µg"},
      {"measurement": "DNA binding / retardation of DNA migration (in words)", "setting": "plasmid DNA", "result": "binds to DNA but cannot fully condense it"},
      {"measurement": "effect on protamine-mediated gene delivery", "setting": "[2]", "result": "did not improve gene delivery"}
    ]}
  ]
}
